{"source": "patent US20020081638", "test_system": "free histones (mixture of H1, H3, H2B, H2A and H4; Boehringer Mannheim)", "data": [{"substance": "GST-SUV39H1(82-412) H320R", "values": [{"measurement": "in vitro HMTase assay with free histones, activity against the unmutated product", "result": "the latter mutation (H320R) resulted in an hyperactive enzyme with approximately 20-fold increased activity"}]}]}
